Reference: the RNAGym collection of RNA variant scans (doi:10.1073/pnas.2313332121)

B1: TPR t1 (parent)
chain: GACCAAUCUGCCCUCAGAGCUCGAGAACAUCUUCGGAUGCAGAGGAGGCAGGCUUCGGUGGCGCGAUAGCGCCAACGUCCUCAACCUCCAAUGCAUCCCACCACAUGAUGAUGCCUGAAGAGCCUUGGUUUUUUG

Variants of: B1
Test: polymerase ribozyme fitness, log enrichment relative to wild type (log ratio); higher = more active; in vitro selection for triplet polymerase activity
In short: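 Frozen incubation at −7 °C formed the core of a single, triplicate in vitro selection round applied to PCR-built, transcribed mutant libraries of each subunit of a heterodimeric triplet polymerase ribozyme. Extended constructs were gel-excised, captured with streptavidin beads and amplified by RT-PCR, and input and output libraries were Illumina-sequenced with a filter of ≥10 input reads and ≥1 read per output. Fitness is the logarithm of genotype enrichment relative to wild-type enrichment, with inverse-variance-weighted replicate averaging, and the logarithm is base 2.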

| Variant | polymerase ribozyme fitness (log ratio) |
| --- | --- |
| C11U G17A A46G G57C C72U C115A G120C U134A | -0.588 |
| C11U C53A G69U G93C C94U | -0.279 |
| C12A C22U U96A | -4.9 |
| C11U U55C G61A A121G | 1.39 |
| C12A A84U G110A C114U | -5.31 |
| C12A G39U G117A | -2.74 |
| C11U G47U C62U G71U C82A A95U | -2.79 |
| C11U C22G A26C C64U | -4.03 |
| C11U C13U C20G G107A G117U G120U | -3.09 |
| C11U C49A G107U G113C | -6.14 |
| C11U C40G G48U G61C C97U G120U | -4.02 |
| C12A C62A U78G | -2.28 |
| C11U C20U C22A A91U G113A | -4.25 |
| C12A C72G A91C U96A | -2.9 |
| C11U G77A | -1.92 |
| C11U G58A G69U | -0.296 |
| C12A G19U C40G C89U C102A U112C C114A | -2.47 |
| C12A A16G U81C G120C | 0.152 |
| C11U C72U | -0.485 |
| C12A C40U | -1.32 |
| C12A C40G | -1.7 |
| C12A C13U G71A G93A | -0.733 |
| C11U C62A | -1.39 |
| C12A G36A G61A U92A C123U | -3.77 |

| Variant | polymerase ribozyme fitness (log ratio) |
| --- | --- |
| C12A C70A C80U | -2.16 |
| C11U U59G G93C U129C | -1.93 |
| C12A A26C C56U G69A C85A | -7.09 |
| C11U G71U U132C | -0.794 |
| C12A G36U G48A G63C C123A | -0.6 |
| C12A A26U G44C C102U C123G | -7.51 |
| C11U C49G A95C | -2.54 |
| C12A C13U A95U A100U G110A | -2.79 |
| C11U G93C U112A G127C U134A | -0.699 |
| C11U G44C C101A | -2.7 |
| C11U G110C | -2.8 |
| C11U G110A | -1.63 |
| C11U G110U | -1.5 |
| C11U C114A | -1.22 |
| C12A C72U C102U C114G | -5.72 |
| C11U C123A | 0.93 |
| C11U C123G | 1.73 |
| C11U C22U U55C C56U A66U | -6.04 |
| C11U G47A G48A | -2.36 |
| C12A A37U U78A A83G U106C | -3.17 |
| C11U G120A U129G | -1.66 |
| C11U C56A C82U C86G | -1.73 |
| C11U U78C C94U | -1.61 |
| C11U G17A | -3 |

| Variant | polymerase ribozyme fitness (log ratio) |
| --- | --- |
| C11U G52A C94G C104A A121G | -2 |
| C11U C22A C73A A83U | -5.9 |
| C11U U112G | -0.177 |
| C11U C56U A95G | -0.936 |
| C12A A37U U78C C82U A108G | -3.38 |
| C12A C56A C62U A91U G128C | -5.72 |
| C11U C20U C56A C88U C114U U131G | -0.397 |
| C12A C31U A83C | -5.06 |
| C11U C53U C73U C85A A121G C123G U126G U129C U130A | -3.11 |
| C11U G17A C64U A83C A84C A119G | -0.999 |
| C11U U32C C123G | 1.18 |
| C11U U21C C82G | -0.576 |
| C12A C22U G45U C49U A68C G120U | -7.43 |
| C12A C20A | -2.37 |
| C12A C20U | -0.43 |
| C12A G47C C49A U125A | -2.88 |
| C12A C28U C40U A41U | -4 |
| C12A A26U | -3.83 |
| C11U C53U G69U A75U A84G | -1.1 |
| C12A A50U G61C U78C C85U C124U | -6.64 |
| C12A A16C | -2.4 |
| C11U G48U G57U G61C C89U U106A | -3.19 |
| C12A | -0.413 |
| C12A A66G G69U G71U | -2.65 |

| Variant | polymerase ribozyme fitness (log ratio) |
| --- | --- |
| C12A C49U C70G | -4.56 |
| C11U C40U | -0.173 |
| C11U G58A U126G | -2.59 |
| C12A C13A | -1.97 |
| C12A C13G | -0.617 |
| C12A C15A C73U C82U | -3.66 |
| C12A C31A | -6.73 |
| C12A C31U | -4.6 |
| C12A A27U | -3.57 |
| C11U C40U A121C U129G | 0.406 |
| C12A C13G G45C G63A A119U C124A U132A | 0.867 |
| C12A A16C A29U G47A G61A | -3.43 |
| C11U U59A C73A A91G A118U | -2.19 |
| C11U G47A G61U U78A | -0.709 |
| C11U C20U A27U | -5.92 |
| C11U G23A | -5.77 |
| C11U G39U A43G | -3.16 |
| C12A C62A U112A C123G | -1.09 |
| C11U C82U C104A U112A | 0.128 |
| C11U U87A | 0.703 |
| C11U C82U | -1.45 |
| C12A A43G C70A U81A G120U | -5.53 |
| C11U G63C | -1.64 |
| C12A C34G G120A | -4.45 |

| Variant | polymerase ribozyme fitness (log ratio) |
| --- | --- |
| C12A G42A | -1.63 |
| C12A C22A U59A G61C | -5.61 |
| C11U G17C C49A G58C | -6.04 |
| C12A C15A U132A | -3.86 |
| C12A G19U C79G | -5.7 |
| C11U U32C C97G | -4.82 |
| C11U C104U | -1.3 |
| C12A A37C G71A A108G U112G | -7.07 |
| C12A A43U A46U G71U | -3.4 |
| C12A C53A A108G | -2.7 |
| C11U G45A G48A A74U | -2.5 |
| C11U U54G C73U C97U G120C | 0.506 |
| C12A A66C U78A | -2.43 |
| C11U C89U C99U A121U U131A | -1.82 |
| C11U U96A | -1.94 |
| C11U C28U G45U G61U A84U C101A | -5.59 |
| C11U G135U | -1.81 |
| C11U G135A | -1.27 |
| C12A G47A C72G G93A G135U | -4.39 |
| C11U G44C A46U | -2.61 |
| C11U G36A C101U | -4.98 |
| C11U C15A C64U A84U | -2.56 |
| C11U C31U | -4.93 |
| C11U C15A C49A C73G C85A G120A | -4.65 |

| Variant | polymerase ribozyme fitness (log ratio) |
| --- | --- |
| C11U G42U | -2.17 |
| C12A C53G U54C A121C | 1.77 |
| C11U C28A | -3.2 |
| C11U C28U | -1.61 |
| C11U C20A A37U G61A A83C C97A C98U U112C | -7.47 |
| C12A C28G G44A | -4.91 |
| C11U C124U | 1.63 |
| C11U C124G | 1.46 |
| C12A C80A G120U | -0.968 |
| C12A C15U C70U C86U | -2.81 |
| C11U G45C U81G | -4.91 |
| C11U U116C | -1.29 |
| C12A A43C C53U | -2.86 |
| C11U G93C G122A | -0.0927 |
| C11U G61U U96A | -1.65 |
| C11U C40G C82U A100U | -4.42 |
| C11U C56G | -1.1 |
| C11U C56A | -0.322 |
| C12A G36C U55G C72U U96G | -4.76 |
| C12A C115U | -1.21 |
| C11U U32A G93A A100U A105G | -4.99 |
| C12A C56U C94G | -2.21 |
| C11U G35U A111U G122C | -6.28 |
| C12A C15G C56G | -2.69 |

| Variant | polymerase ribozyme fitness (log ratio) |
| --- | --- |
| C11U C15A C56G G69U | -2.64 |
| C11U G71U | 0.863 |
| C12A A41U A90C | -1.95 |
| C12A A43G C62U C124G G127U | -0.505 |
| C11U G69U | 0.459 |
| C11U C115A | -0.908 |
| C12A A37G U55G | -0.496 |
| C11U G122A G128C U131C | -0.489 |
| C11U G19U U54A A121C G135U | -2.38 |
| C12A A46U C62U C98G C115G U132G | -6.35 |
| C12A C15A G47U C62U U78C A83U G120C U133A | -2.07 |
| C11U G107A | -6.13 |
| C12A G36U C64U A83G G113A | -4.18 |
| C11U C97U G113A | -1.74 |
| C11U C15U C56U C72U | -1.82 |
| C12A A50U C70A | -3.58 |
| C12A A18C U81G G120A | -5.16 |
| C12A A83U U106G | -2.32 |
| C11U C20A G61U U133G | -2.19 |
| C11U C40U G120A | -0.013 |
| C11U C53A | -0.286 |
| C11U C53U | 0.00138 |
| C11U C53G | -0.654 |
